The series has as its target Casp-Cas9 (Aciduliprofundum boonei T469 / …, UniProt B5IAF4 1-404+=GGSGGSGGSGGSGGSGGSGGSGGS+Q99ZW2:1-1368, internal_change). The series is described as follows: R-loop formation gel assay (deproteinised); sgran50; 5 mM EDTA; 25 mM Tris pH 7.5, 106 mM KCl, 50 ug/ml BSA, 5 mM EDTA, 2 mM DTT, 9% glycerol, 37 C; 150 nM protein, 300 nM sgRNA, 25 nM Cy5-dsran50, 75 nM unlabelled MW12 dsDNA competitor; 8% acrylamide TBE gel. Conditions: protein: recombinant, tags: His6, label: 5'-Cy5 on ssran50 strand (strand 2), blunt 50 bp DNA target plus sgRNA, PAM TGG.

B1: sgran50 + dsran50 (mixed)
RNA: GGUAGACGAUUACAUUGCUACAGUUUUAGAGCUAGAAAUAGCAAGUUAAAAUAAGGCUAGUCCGUUAUCAACUUGAAAAAGUGGCACCGAGUCGGUGCUU
DNA 1: CAACGTCATAGACGATTACATTGCTACATGGAGCTGTCTAGAGGATCCGA
DNA 2: TCGGATCCTCTAGACAGCTCCATGTAGCAATGTAATCGTCTATGACGTTG
For the molecule B1, the binding result is “binds”.
